Drawing on publication PMC11309785, “Vaccine priming of rare HIV broadly neutralizing antibody precursors in non-human primates” (Science (New York, N.Y.), 2024), this text covers Kd for two molecules.

In the experiment the target is T1, N332-GT5 trimer, C-terminal His-tagged (captured ligand of the SPR) (HIV-1 isolate BG505 (N332-GT5 …, stabilised)).
T1 construct: HIV-1 envelope (Env) of isolate BG505, gp120 part of the germline-targeting trimer N332-GT5, co-expressed with furin; S18, coordinates in PDB 8T4K; HIV-1 envelope (Env) of isolate BG505, gp41 ectodomain part of the trimer N332-GT5; MD65 = MD39 stabilising mutations plus V505T, V513A, V518S, L520D; also called N332-GT5 WT; source: 293F cells, co-transfected with furin, purified (HIS-TRAP, SEC); …
Put plainly: SPR; ProteOn XPR36, HC30M XanTec chip; His-tagged trimer (300 to 400 RU, 1 ug/mL) captured by immobilised rabbit anti-His-tag pAb, Fab flowed as analyte at 30 ul/min for 3 min, 5 min dissociation; 1x HBS-EP+ pH 7.4 with BSA 1 mg/ml; equilibrium or kinetic (Langmuir) fits; highest concentration 2x10^-5 M, approximate upper affinity limit 1.6x10^-11 M. To be noted: both partners purified. For orientation: SPR reads the build-up and loss of mass on a sensor chip optically.

B1: RM_N332_32 Fab (Fab, V domains shown)
VH: QLQLQESGPGLVKPSETLSLTCAVSGGSISDYCWNWIRQPPGKGLEWIGYIGGSSGSTYYNPSLKGRVTISADTSENRFSLKLSSVTAADTAVYYCARSPITVFGVVIFDEYTTGNLDLWGPGTPISISS
VL: DIQMTQSPSSLSASVGDKVTITCHASQDISSWLAWYQQKPGKAPKPLIYYASSLQSGVPSRFSGSGSGTDYTLTITSLQPEDFATYYCQQYDDLPFTFGPGTKLDIK
notes: human Fab heavy chain constant region from the vector pFabCW; human kappa constant region from the vector pCW-CLig-hk; Macaque variable regions on human constant regions; The deposited model may hold the Fv only; also called BG18 type I Fab with kappa light chain; source: FreeStyle 293F or ExpiCHO cells, purified (CaptureSelect CH1-XL)
For orientation: Kd means a measure of binding affinity in units of concentration. Higher therefore signals lower affinity. Turning to B1, the affinity, expressed as Kd, was 81 pM.

B2: RM_N332_36 Fab (Fab, V domains shown)
VH: QVTLKESGPALVKPTQTLTLTCTFSGFSLSTNYMGVDWIRQPPGKALEWLARIYWNDDKYYSTSLKSRLTISKDTSKNQVVLTMSNMDPVDTATYYCARVKLSVWGVLQFFEWSDYGLDSWGQGVVVTVSS
VL: SYVLTQPPSVSVSPGQTARITCGADNIGSQSVHWYQQKSPQAPVLVISADTERPSGIPERFSGSNSGNTATLTISGVEAGDEADYYCQVWDSDSKYALFGGGTRLTVL
notes: human Fab heavy chain constant region from the vector pFabCW; human lambda constant region from the vector pCW-CLig-hL2; Macaque variable regions on human constant regions; The deposited model may hold the Fv only; also called BG18 type I Fab with D3-41 in alternate reading frame; source: FreeStyle 293F or ExpiCHO cells, purified (CaptureSelect CH1-XL)
B2 yielded a Kd of 38 pM.
